Reference: publication PMC12478413 (bioRxiv, 2025)
Like-named read-outs stand apart in the source and are kept apart here. One block for each molecule: values may come before it.

Legend:
[1] = molecular target: recombinant human LIMP2 lumenal domain (residues 36-430) (human) (UniProt Q14108); assay: SEC-MALS
[2] = molecular target: recombinant GCase E326K variant (human GBA1 residues A40-Q536) (human); assay: dynamic light scattering
[3] = molecular target: recombinant GCase E326K variant (human GBA1 residues A40-Q536) (human); assay: SEC
[4] = molecular target: recombinant human LIMP2 lumenal domain (residues 36-430) (human) (UniProt Q14108); assay: SPR
[5] = molecular target: recombinant human LIMP2 lumenal domain (residues 36-430) (human) (UniProt Q14108); assay: SPR; remark: listed apart in the source
[6] = molecular target: recombinant GCase E326K+R329A double mutant (human); assay: SEC
[7] = molecular target: T1, recombinant WT GCase (glucocerebrosidase, human GBA1 residues A40-Q536) (human, UniProt P04062 40-536); assay: SPR
T1 sequence (looked up): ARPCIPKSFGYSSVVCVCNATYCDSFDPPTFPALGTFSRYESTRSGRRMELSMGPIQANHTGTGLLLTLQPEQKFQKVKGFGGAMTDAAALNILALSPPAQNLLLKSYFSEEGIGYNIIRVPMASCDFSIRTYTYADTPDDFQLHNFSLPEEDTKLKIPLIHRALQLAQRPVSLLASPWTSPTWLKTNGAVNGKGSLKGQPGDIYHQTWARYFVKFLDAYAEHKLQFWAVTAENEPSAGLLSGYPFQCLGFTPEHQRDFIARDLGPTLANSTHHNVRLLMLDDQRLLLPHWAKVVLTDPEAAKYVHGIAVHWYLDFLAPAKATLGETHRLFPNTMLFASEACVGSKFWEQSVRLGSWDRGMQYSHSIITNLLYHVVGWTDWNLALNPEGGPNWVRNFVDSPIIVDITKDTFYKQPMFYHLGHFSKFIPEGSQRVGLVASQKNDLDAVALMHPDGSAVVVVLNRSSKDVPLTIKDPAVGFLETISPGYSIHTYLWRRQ

[8] = molecular target: T1, recombinant WT GCase …; assay: SPR; remark: listed apart in the source

stoichiometry N (GCase E326K : LIMP2 (2:2)) [1]: 1
stoichiometry N [2]: 2
stoichiometry N [3]: 2
Kd [4]: 2.44 nM
Kd [5]: 3.89 nM
Molecule: recombinant GCase E326K variant (human GBA1 residues A40-Q536) (enzyme)

stoichiometry N [6]: 2
Molecule: recombinant GCase E326K+R329A double mutant (enzyme)

Kd [7]: 19.9 nM
Kd [8]: 14.4 nM
B1: recombinant human LIMP2 lumenal domain (residues 36-430) (domain or fragment, UniProt Q14108 36-430, looked up)
chain: SIEKKIVLRNGTEAFDSWEKPPLPVYTQFYFFNVTNPEEILRGETPRVEEVGPYTYRELRNKANIQFGDNGTTISAVSNKAYVFERDQSVGDPKIDLIRTLNIPVLTVIEWSQVHFLREIIEAMLKAYQQKLFVTHTVDELLWGYKDEILSLIHVFRPDISPYFGLFYEKNGTNDGDYVFLTGEDSYLNFTKIVEWNGKTSLDWWITDKCNMINGTDGDSFHPLITKDEVLYVFPSDFCRSVYITFSDYESVQGLPAFRYKVPAEILANTSDNAGFCIPEGNCLGSGVLNVSICKNGAPIIMSFPHFYQADERFVSAIEGMHPNQEDHETFVDINPLTGIILKAAKRFQINIYVKKLDDFVETGDIRTMVFPVMYLNESVHIDKETASRLKSMIN
modifications: biotin on the Avitag (BirA, for SPR)
